Results from the DeepSol protein solubility set.

Assay: soluble on expression in E. coli; label from the status in PepcDB or PDB records

Sequence | soluble on expression in E. coli
MSLFDPNDYKDEIRQIARDKANLELDLKGDIGWSLFPWLGLELHDTSIASAATPTKPFADLQMLGLSVRVLPLLRKDVQMSAIRVEGLSLDLVRDKQGKGNWENIGKPAQPQAPAAPSETPPAADGKGAQAQAPEQAPQNDSPRTPIKLDIDSLNVNNARVTYTDEASGKQYNVEGIELSTGAIREGSSIPLKLNAYLGTNQPVVRVKTELTGNLRFDTALRRYQLEDARLSGEASGEPLQGKTATFSAQGQLLLDQSAQIAEWNGLKLSVNQLRALGELKARELDKDTKFSGGLSIAPMNLREFLAGIGVTLPAMADANTLGKFELNTRLAGSRNSLNLEDLKLGLDDTAFSGRFGIADFARQSLRAQLKGDKLDLDRYLPAKAKQAQDAASATRKAEVDATVASAAQGNTPLPEKPTRQAWSDAPLLPIATLRKLDLDVALNFGRLTVEKLPIDDASLKLRGQGGVISLDDMRGGLYNGRFNAKANLDVRQDSAVLTATKHIANVPVERLLEAQGKKPPVKGLLDLDADIRTSGNSEKSWIDHLNGNARFSLINGVLPDANLEQQLCQGIATLNRKALAGTHGGKDTPFRELKGSLNFTNGVASNPDLKVAIPGLAVSGHGDIDLRVLGMDYRIGVEIQGDKSDMPDPACQVNQRYAGIEWPLLCRGPLELGAKACRLDKEGMGKVAAKLAGNRLNEKLEEKLGDKVSPELKDALKGLFNRKEGHHHHHH | soluble
MSLKMTFCRAVCLAAAFLLMGCDEAPETTTASPAAQVLEGKTMGTLWRVSVVGIDAKRAAELQTKIQTQLDADDWLLSTYKNDSALMRFNHSRSLAPWPVSEAMADIVTSALRIGAKTDGAMDITVGPLVNLWGFGPDRQPLHIPTPAQIDAAKAKTGLQHLQVIDRAGHQFLQKDLPDLYVDLSTVGEGYAADHLARLMEQEGIARYLVSVGGALSSRGMNAQGQPWRVAIQKPTDRENAVQAIVDINGHGISTSGSYRNYYELDGKRVSHVIDPQTGRPIEHNLVSVTVIAPTALEADGWDTGLMVLGTQKAQEVVRREGLAVFMIMKEGEGFKTWMSPQFKTFLVSDKNEGGSHHHHHH | soluble
HPWRKGPFTVHDIHIDTEWRSDWKWDRLLPHITPLKNRSVLDVGCGNGYHMWRMLGEDARLCVGIDPSHLFLIQFEAIRKLMGNDQRAHLLPLGIEQLPELNAFDTVFSMGVLYHRRSPLDHLIQLKNQLVAGGELVLETLVIDGDENAVLMPVDRYAQMRNVYFFPSARALKVWLESVGFVDVKIVDECVTTTGEQRSTEWMKHNSLPEYLDPNDSTKTIEGHPAPKRAILIAKKPD | not soluble
MSRKMTGIVKTFDCKSGKGLITPSDGRKDVQVHISACRQHETEALIPGIRVEFCRINGLRGPTAANVYLS | not soluble
SKLVYRNLARNGPGSVKLVPEEEDDLWHAYNLIVPGDTLQSVTVRKVLREMASGGRDAERVRLKLEIVVESVDYDKEGSVLRVRGKNITENDHVKIGQFHTVELELKRQFTLTKELWDWLALDTIQQACDPTASADLAVILMQEGLAHLFLIGRSITVTRARIETSIPRKHGPAIAGYESALKKFFEHVLQVNEKCFLKEMIILMKPIWTDALLNLPTGFPEAY | soluble
MGHHHHHHSHMVTASRYYPQLMSLVGNVLRFLPAFVRMKQLISEHYVGAVMICDARIYSGSLLSPSYGWICDELMGGGGLHTMGTYIVDLLTHLTGRRAEKVHGLLKTFVRQNAAIRGIRHVTSDDFCFFQMLMGGGVCSTVTLNFNMPGAFVHEVMVVGSAGRLVARGADLYGQKNSATQEELLLRDSLAVGAGLPEQGPQDVPLLYLKGMVYMVQALRQSFQGQGDRRTWDRTPVSMAASFEDGLYMQSVVDAIKRSSRSGEWEAVEVLTEEPDTNQNLCEALQRNNL | not soluble
MIPMEELKVKKITNGTVIDHIDAGKALMVFKVLNVPKETSVMIAINVPSKKKGKKDILKIEGIELKKEDVDKISLISPDVTINIIRNGKVVEKLKPQIPDEIEGTLKCTNPNCITNKEKVRGKFKIESKNPLKIRCYYCEKFLNEVIFE | soluble
MSLRVEAQNISKTFGEVQALKDLSFVIEKGKALGLLGRNGAGKTTAIRILLGILPSDTGKVLVDNKKLSFDENAFGYLPEERGLYLKYTVKSQLMHFASLYGMKKKEALNSIEYWLEKFEISEYLNKKVETLSKGNKQKIQLIVAVMHDPEVIILDEPFSGLDPVNVELFKTVIRELLAKGKTLIFSSHRMADVEEFCDDIIMLKKGETMLQGNLDKIKEDYGIKGLVVEGEEKVQDFLKELGFEALEFKKGSYRVNLKDLEKGKELLRKITNTDLDIRGFYFERPSLNDIFIERLGEGHHHHHH | soluble
MTLLNLMIMQDYGISVCLTLTPYLQHELFSAMKSYFSKYILPVSLFTLPLSLSPSVSAFTLPEAWRAAQQHSADFQASHYQRDAVRARQQQAKAAFLPHVSANASYQRQPPSISSTRETQGWSVQVGQTLFDAAKFAQYRQSRFDTQAAEQRFDAAREELLLKVAESYFNVLLSRDTVAAHAAEKEAYAQQVRQAQALFNKGAATALDIHEAKAGYDNALAQEIAVLAEKQTYENQLNDYTDLDSKQIEAIDTANLLARYLPKLERYSLDEWQRIALSNNHEYRMQQLALQSSGQALRAAQNSRYPTVSAHVGYQNNLYTSSAQNNDYHYRGKGMSVGVQLNLPLYTGGELSGKIHEAEAQYGAAEAQLTATERHIKLAVRQAYTESGAARYQIMAQERVLESSRLKLKSTETGQQYGIRNRLEVIRARQEVAQAEQKLAQARYKFMLAYLRLVKESGLGLETVFAE | not soluble
MGSDKIHHHHHHMQIDSSILGALRCFEAAGRLLSFTKAAESLNLTQSAVSQQIRHLEDRLGYVLFVRQPRSLKLTPQGEVLFETTTRALHDIQQTIQRLGMPNAPLQVNCLPSFALQWLMPRLTDFHREQPDVSVRLKAEFQALDRQSMDTEDIDVAVRYDPVRYSRLHADVLLDEYLIPVATPEYLAEHRELAEGTSLDGVVLLHDASPWVGAAEFVEWRTWLEAFHPTWMAHLEGPQFNLSSLAISAALNHQGVAMGRTALVYDEIRSGRLVNVFRQHVRAPARYMLLSRNPDDRRVTIFSAWLKAECARFDAMRMETLSRDR | not soluble
MSEKKSELVGRHKRVAYMNTDATGSSPKFERMTNFTTMTNGKNPKEYSRQYVDEIAERADVVGYAPAIEYSFDRYTNNPVHEKIATIHDGEKLGDDAHVEVVVVDFFKKSDKGDKCYATKRTYAVIPDSDGDGTDALVYSGSLKSVSDIEEGYVTETDFTSKTVTYAKGDYAATELEHHHHHH | soluble
MRYIRQLCCVSLLCLSGSAVAANVRLQVEGLSGQLEKNVRAQLSTIESDEVTPDRRFRARVDDAIREGLKALGYYQPTIEFDLRPPPKKGRQVLIAKVTPGVPVLIGGTDVVLRGGARTDKDYLKLLDTRPAIGTVLNQGDYENFKKSLTSIALRKGYFDSEFTKAQLGIALGLHKAFWDIDYNSGERYRFGHVTFEGSQIRDEYLQNLVPFKEGDEYESKDLAELNRRLSATGWFNSVVVAPQFDKARETKVLPLTGVVSPRTENTIETGVGYSTDVGPRVKATWKKPWMNSYGHSLTTSTSISAPEQTLDFSYKMPLLKNPLEQYYLVQGGFKRTDLNDTESDSTTLVASRYWDLSSGWQRAINLRWSLDHFTQGEITNTTMLFYPGVMISRTRSRGGLMPTWGDSQRYSIDYSNTAWGSDVDFSVFQAQNVWIRTLYDRHRFVTRGTLGWIETGDFDKVPPDLRFFAGGDRSIRGYKYKSIAPKYANGDLKGASKLITGSLEYQYNVTGKWWGAVFVDSGEAVSDIRRSDFKTGTGVGVRWESPVGPIKLDFAVPVADKDEHGLQFYIGLGPELLEHHHHHH | not soluble
MSLDNRFPVCINTMKLTMPKLEVYYPSIGGISDINVQKKMNNTILNLVYQMIEDQGYYKNTETTITGYFEIKNNQRGILSLTLSNYAFSGGAHGMTIMKSLTFNVETGEEYSLSQLFKPGSNYVKVLSELIKVQIRERDIPVIEEFCAIKPNQDFYIADKILVLYFQLYELVPYAYGFPQFPISVYTIQDIINEDGPLGRMLYEGHHHHHH | soluble
MGSDKIHHHHHHMQKLMHCSIMDLRLLVAVADAGNMSKGGAVCFLAPSTASLRIKHLEAIVGTRLFRREARGVSLTRAGQIMVDHSRRCLTEIEQMQASLTPFSEDVHAQLVLYANSSAIASFLPGDLQGFLQSHPKARITLEEHLSRDVLVAVVEGRADIGILTKDEPHPDLVYFPYHEDEIVLLLAETQPWTKTEPVAFLDCLSFPFVSQQNGSAIHSFLLAKASEQGRRVDVRIQVAGFAAVASMVRSGVGVAIVPRSALAAINVEGLRVVALSDAWARRTLSLCVRRDVLGSRNYVTALVDVLRQSGDQAGVADSA | not soluble
KQAQVDYLALPGDAKLDTRSVDYKCENGRKFTVQYLNKGDNSLAVVPVSDNSTLVFSNVISASGAKYAAGQYIWWTKGEEATLYGDWKGGEPTDGVACKER | soluble
MAHHHHHHMCREPYLLLSMHRLLLAAYWPDSDRLHCSEREWPLTEHSGAVPFMVESANGRVLPWCPWRDNSVAELLAVVRGMMELAGMKLGIVVGDRLVPD | soluble
MTIFEKNVIEFVTVAAEFCAFLERAEHMKRKAFVDTSLKILPLLYLKASLLPKCETIGDEAPETYVTEEIYEILRINLAGLMGEKDDYLDVFVQDMVYSDQPIKKSVSEDLADIYQDIKDFIFVFQLGLNETMNDSLAICQENFGLLWGQKLVNTLRALHDVKYLEHHHHHH | soluble
MQAYTYTIIQRLDNLNQQRIDRALALMDSQSQQVFHLIPALLNYNHPVIPGYYDADVPFGVHGLELNPIQQQFIDDIQLAIGQPLKTAEKPAILGLYTMGSTSSIGQSTSSDLDIWVCISPEMDCDERELLTNKCLLITDWAQSQGVEANFFLMDEERFRSNHSEEMTGDNCGSSQHLLLLDEFYRSAVRIAGQRLLWQIVPPEMEECYDEYVSQLCSDGYIDCSEWIDFGKLNRIPAEEYFGSNLWQLYKSIDSPYKSVLKAILLEAYSWEYPHTQLLSIDTKRRFFAHEPDLYGMDAYYLMLEKVTRYLERIQDDTRLDLVRRCFYLKTHEKLSREPDVGSVAWRREALSDMIAKWNWDDSVVAELDDRRNWKVEQVKVVHHALLDALMQSYRNLIQFARRNDITSAISPQDISILARKLYAAFEVLPGKVTLLNPQISPDLHEADLSFIEVKEGGVNKSGWYLYKQPLIAHRILGQPCLEHHEYLSKLVSWAFFNGLITESTRLHAVVREAQLDIDKFYQMVSDLRNTFALRKRRPTMQALASPCEISQLAMFINFENDPTSELSGRSLKVDVKNTDIFSFGPEHKNLVGSVDLVYRNSWHEVRTLHFKGETAMLDALKTILGKMHQDALPPESVDVFCYAKNMRGVMRNMVYQLLAECIDLRLKPVEQEKRRRFKAMRLGNQTYGLFFERRGVSVQKLENSIDFYRSISTNKLKGSPLLMLDREQEYQLPEAVDGFASEGLVQFFFEDNEDGFNIYVLDESNQVEVYHQFSGSKDEMIASVNSFYTSVKDDSRVASKFINFNLPQYYQIIHPEEGNAYIIPYRNDGCSP | not soluble
WQFTPNTGGNTITKVEAENMKIGGTYAGKISAPFDGVALYANADYVSYSQYFANSTHNISVRGASSNAGTAKVDLVIGGVTVGSFNFTGKTPTVQTLSNITHATGDQEIKLALTSDDGTWDAYVDFIEFSL | soluble
